{"source": "paper PMC6123778", "about": "“Structural rearrangements in the C-terminal domain homolog of Orange Carotenoid Protein are crucial for carotenoid transfer” (Communications Biology, 2018)", "molecules": {"B1": {"name": "Apo-CTD from Synechocystis OCP (residues 165-317) (domain or fragment, Synechocystis 6803, UniProt P74102 165-317, looked up)", "chain": "AGKDGKRIAEPVVPPQDTASRTKVSIEGVTNATVLNYMDNLNANDFDTLIELFTSDGALQPPFQRPIVGKENVLRFFREECQNLKLIPERGVTEPAEDGFTQIKVTGKVQTPWFGGNVGMNIAWRFLLNPEGKIFFVAIDLLASPKELLNFAR", "notes": "C-terminal domain of the Orange Carotenoid Protein of Synechocystis 6803, residues 165-317 (of 317); 18.7 kDa construct with an uncleavable N-terminal hexahistidine tag; carotenoid-free; The SAXS modelling counts 23 flexible N-terminal residues (tag and linker included) and 12 C-terminal ones; also called apo-OCP-CTD; CTD-OCP; not shown: His6, N-terminal, kept"}}, "key": {"[1]": {"target": "T1, AnaCTDH (CTDH, C-terminal domain homolog of OCP, clade 2) (Nostoc sp. PCC 7120 = FACHB-418, UniProt A0ACD6B996, C103F)", "T1 construct": "gene all4940; C-terminal His-tag (plasmid pCDF-CTDHAna-C103F), expressed in E. coli; dimer about 34 kDa; the wild type was crystallised in apo form", "T1 sequence (A0ACD6B996 entry or part of it C103F)": "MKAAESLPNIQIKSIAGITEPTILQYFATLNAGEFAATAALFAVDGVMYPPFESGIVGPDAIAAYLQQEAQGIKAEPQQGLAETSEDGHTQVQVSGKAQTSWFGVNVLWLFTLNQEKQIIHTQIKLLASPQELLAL", "assay": "absorbance spectra after uptake from canthaxanthin-containing E. coli membranes", "format": "binding", "conditions": "12 µM apo-dimer, membranes with 48 µM canthaxanthin, 33 °C, 1 h, darkness"}, "[2]": {"target": "T2, AnaCTDH (CTDH, C-terminal domain homolog of OCP, clade 2) (Nostoc sp. PCC 7120 = FACHB-418, UniProt A0ACD6B996, C103F/DEL126-136)", "T2 construct": "gene all4940; C-terminal His-tag (plasmid pCDF-CTDHAna-C103F), expressed in E. coli; dimer about 34 kDa; the wild type was crystallised in apo form", "T2 sequence (A0ACD6B996 entry or part of it C103F/DEL126-136)": "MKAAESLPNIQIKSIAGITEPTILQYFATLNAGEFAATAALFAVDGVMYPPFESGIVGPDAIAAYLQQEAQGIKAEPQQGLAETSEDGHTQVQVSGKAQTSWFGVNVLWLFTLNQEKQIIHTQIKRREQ", "assay": "absorbance spectra after uptake from canthaxanthin-containing E. coli membranes", "format": "binding", "conditions": "12 µM apo-dimer, membranes with 48 µM canthaxanthin, 33 °C, 1 h, darkness; C-terminal tail deleted"}, "[3]": {"target": "Anabaena (Nostoc) PCC 7120 apo-CTDH (carotenoid-free C-terminal domain homolog of Orange Carotenoid Protein) (Anabaena (Nostoc) PCC 7120)", "assay": "native gel or EMSA; purified apo-AnaCTDH on 15% native polyacrylamide gel, pH 8 (25 mM Tris-HCl, 192 mM glycine), non-reducing"}, "[4]": {"target": "Anabaena (Nostoc) PCC 7120 apo-CTDH (carotenoid-free C-terminal domain homolog of Orange Carotenoid Protein) (Anabaena (Nostoc) PCC 7120)", "assay": "SEC; apo-AnaCTDH treated with 2 M urea overnight, preparative column, 40 mM Tris-HCl pH 8 with 2 M urea"}, "[5]": {"target": "the molecule itself", "assay": "SAXS; batch mode, 270 µM per monomer, 20 mM Tris-HCl pH 7.6, 150 mM NaCl, 0.1 mM EDTA, 2 mM dithiothreitol, 3% glycerol"}}}
{"molecule": "CC1=C(/C=C/C(C)=C/C=C/C(C)=C/C=C/C=C(C)/C=C/C=C(C)/C=C/C2=C(C)C(=O)CCC2(C)C)C(C)(C)CCC1=O", "note": "[canthaxanthin]", "values": [{"measurement": "% holo-protein formed", "setting": "[1]", "value": 100, "unit": "%"}, {"measurement": "% holo-protein formed", "setting": "[2]", "value": "20(±5) %"}]}
{"molecule": "Anabaena (Nostoc) PCC 7120 apo-CTDH (carotenoid-free C-terminal domain homolog of Orange Carotenoid Protein) (natural protein)", "values": [{"measurement": "stoichiometry N", "setting": "[3]", "value": 2}, {"measurement": "stoichiometry N", "setting": "[4]", "value": 2}]}
{"molecule": "B1", "values": [{"measurement": "stoichiometry N", "setting": "[5]", "value": 2}]}
